B1: Methanocaldococcus jannaschii CorA (natural protein, UniProt Q58439 1-317, looked up)
chain: MITVIAIAKDGSIVEPKLDEISFEDYRLIWIDCYDPKDEELYKLSKKIGISVSDLQIGLDEQEIPRVEEDEDFYLIIYKAPLFEEDITTTSLGIYIKNNLLLTIHSDKIKAIGRLHKLISTKKPRIVFERGIGFLLYHILNEITRSYSRILMNLEDELEELEDKLLAGYDREVMEKILGLRKTLVYFHKSLIANRDVLVLLKRKYLPITTKEDRENFEDLYYDTLQLIDMSATYREVLTSMMDITLSLENIKMNQIMKILTMVTTIFAVPMWITGIYGMNFSYLPLANNPQGFWLVMALMVVIIMIFVYIFRRSGWI
notes: CorA magnesium channel (divalent metal ion transporter) of Methanocaldococcus jannaschii, E. coli codon-optimised, in pET15b; The HA tag is said to precede MjCorA; the His-tag was removed by thrombin; also called MjCorA; McCorA
B2: WzzB^ST (natural protein)
chain: MTVDSNTSSGRGNDPEQIDLIELLLQLWRGKMTIIVAVIIAILLAVGYLMIAKEKWTSTAIITQPDAAQVATYTNALNVLYGGNAPKISEVQANFISRFSSAFSALSEVLDNQKEREKLTIEQSVKGQALPLSVSYVSTTAEGAQRRLAEYIQQVDEEVAKELEVDLKDNITLQTKTLQESLETQEVVAQEQKDLRIKQIEEALRYADEAKITQPQIQQTQDVTQDTMFLLGSDALKSMIQNEATRPLVFSPAYYQTKQTLLDIKNLKVTADTVHVYRYVMKPTLPVRRDSPKTAITLVLAVLLGGMIGAGIVLGRNALRSYKPKAL
notes: WzzB^ST, bacterial inner membrane polysaccharide copolymerase (O-antigen chain length regulator); the AlphaFold2 model AF-Q04866-F1 of the full-length protein was fitted into the map; periplasmic domain residues 55-289, TM residues 20-54 and 289-319; source: extraction and purification as previously described [65]; purified, in 20 mM Tris pH 7.5, 150 mM NaCl, 0.025% DDM; copies: 12

Columns and labels:
[1] = target: the molecule itself; assay: cryo-EM structure; MjCorA at 2 mg/mL in 50 mM Tris/HCl pH 8.0, 200 mM NaCl, DDM; initial 3D classification of ~550,000 particles, binned x4, resolution limited to ~6 Å
[2] = target: the molecule itself; assay: cryo-EM 2D class averages; WzzB^ST in DDM; 2D classes and an unmasked 3D reconstruction; smaller oligomer and end-to-end pseudo-D-symmetrical pairs of complexes
[3] = target: the molecule itself; assay: cryo-EM structure; WzzB^ST at 10 mg/mL in 20 mM Tris pH 7.5, 150 mM NaCl, 0.025% DDM; single-particle analysis in RELION 5, ~4.2 Å, C6 ring of dimers; AlphaFold2 model fitted and refined

| Protein | stoichiometry N [1] | stoichiometry N [2] | stoichiometry N [3] |
| --- | --- | --- | --- |
| B1 | 5 |  |  |
| B2 |  | ~4 | 12 |

Reference: publication PMC12466997, “Coming Clean and Avoiding Bubble Trouble–Using Detergents Wisely in the Purification of Membrane Proteins for Cryo-EM Studies” (Biomolecules, 2025)
